How the values were obtained:
[1] = test system: murine IL-2, IL-10, IL-12-p70, and TNFα; test: Bioplex analysis of mouse cytokines in BAL of humanized NSG mice; type: in vivo; settings: days 0 to 35 or days 35 to 63
Procedure: (A-E) Murine IL-2 (A), IL-10 (B), IL12-p70 (C), IFNγ, and TNFα in the BAL from non-humanized and humanized NSG mice treated with KB004 or KB243 from days 0 to 35, or from days 35 to 63 after IPF cell injection. Mouse cytokines were measured using Bioplex and data shown are mean±sem; n=5-10/group. ****p≤0.0001
Lungs in non-humanized and humanized NSG mice were washed using 1 ml of saline solution, and the resulting BAL was centrifuged to remove cells and the supernatants were stored at −80° C. until analysis. Mouse cytokines in the BAL were measured using predesigned Bioplex assays (Bio-Rad) as recommended by the manufacturer, […]

CCR10+ EphA3+ cells = test: Humanized NSG mouse model of IPF: KB004 / KB243 mAb treatment (hydroxyproline, Masson's trichrome, flow cytometry); type: in vivo, human IPF cells in NSG mice
From the text: Six to eight-week old, female, pathogen free NOD Cg-Prkdc^SCID IL2rg^Tm1wil Szi (NSG) or NOD.Cg-Prkdc^SCID IL2rg^tm1Wil Tg(CAG-EGFP) 10sb/SzJ (NSG-GFP) were purchased from Jackson Laboratories and housed in Cedars-Sinai Medical Center's high isolation animal rooms. NSG mice were allowed a minimum of one week to acclimate in the facility and then these mice either received nothing (i.e., non-humanized) 1×10^6 IPF cells by intravenous injection (i.e. humanized). In most in vivo experiments, the IPF cells used were removed from liquid N2 storage, rapidly thawed, and washed in serum-free medium prior to injection into NSG mice. […] […] Other groups of humanized NSG mice received either vehicle (i.e., solutol) or BIBF1120 (Cayman Chemicals) by oral gavage beginning at day 35 after IPF cell injection. Vehicle or drug was administered 5 days a week until day 63 after IPF cell injection. All NSG groups were monitored daily and mice were sacrificed if there is evidence for morbidity such as weight loss of more than 20%, loss of fur, paralysis and/or lack of responsiveness when handled.
Murine lung cellular suspensions were generated using a mouse lung dissociation kit, C-tubes, and a GentleMacs dissociator (Miltenyi Biotech). Spleens were dissociated using a sterile rubber tip of 1 ml syringe plunger and 100 μm 50 ml tube filters (BD bioscience) as follows: isolated spleens were placed in 1 ml of sterile complete medium until all the samples were collected. Sterile 50 ml conical tube filters were placed on top of sterile 50 ml conical tubes and were equilibrated by pipetting 1 ml of calcium and magnesium free DPBS (DBPS; Cellgro) through the filters. Spleens were transferred to a sterile 50 ml filter, cellular suspensions were generated using a sterile rubber tip of a syringe plunger, and splenic material was flushed with 5 ml of DPBS. Lung and splenic cell suspensions were centrifuged and resuspended in 1 ml of RBC lysis buffer (Biolegend), incubated at room temperature for 1-2 min and then equilibrated by adding 25 ml of DPBS to each tube. Cells were centrifuged and resuspended in flow cytometric wash/staining buffer (DPBS+2% FBS) in the presence of human and mouse Fc receptor blocking antibodies (Biolegend). Cells were then stained with anti-human-CD45, -EpCAM and -CCR10 antibodies for 20 min at 4° C. Unstained, isotype controls, fluorescent minus one controls and staining in non-humanized murine lung and spleen suspensions were utilized to gate out any non-specific antibody binding and background fluorescence. CCR10 antibodies were validated via the enrichment for CCR10 transcripts in magnetically sorted CCR10^+ cells versus non-sorted normal and IPF explant cells (FIG. 35). Flow cytometric data were acquired within one week of staining using a LSR Frotessa (BD Biosciences) or MACSQuant 10 (Miltenyi Biotech) flow cytometers and data were analyzed using Flowjo software V10.2 (Treestar Inc.). The resulting gates from non-humanized NSG-GFP mice were used to identify human CD45-, EPCAM-, CCR10-, and PDGFRα-stained cells (FIGS. 36C & 21F).
Lung tissue was fixed in 10% NBF solution for 24 h and subsequently transferred into tissue cassettes and kept in a 70% ethanol solution for approximately 24 h, Lungs were then processed using routine histology techniques and stained using Masson's trichrome. A Zeiss Axio Observer Z1 microscope and the Zeiss Zen 2012 v 1.1.2.0 software (Zeiss) were used to obtain representative images.
Total lung hydroxyproline was analyzed. […] On the day of the assay, tissues were thawed and […] of distilled water (dH2O) was added to the tissues. Tissues were homogenized using a micro-sample homogenizer (Pro Scientific) as follows: the homogenizing tip was washed in 70% ethanol, then dH2O and then utilized to homogenize the tissues. The homogenizer was washed in dH2O between samples and a new batch of dH2O was utilized after 5 samples. […]

[2] = prophylactic, 5 mg/kg days 0 to 35, day 35, flow cytometry
[3] = treatment beginning at day 7, day 35

B1: KB004: afucosylated anti-EphA3 mAb supplied by Kalobios; targets EphA3+ cells via antibody-dependent cell-mediated cytotoxicity (ADCC) (antibody, chains of the INN, looked up, V domains shown)
VH: QVQLVQSGAEVKKPGASVKVSCKASGYTFTGYWMNWVRQAPGQGLEWMGDIYPGSGNTNYDEKFQGRVTMTRDTSISTAYMELSRLRSDDTAVYYCARGGYYEDFDSWGQGTTVTVSS
VL: DIQMTQSPSFLSASVGDRVTITCRASQGIISYLAWYQQKPEKAPKRLIYAASSLQSGVPSRFSGSGSGTEFTLTISSLQPEDFATYYCGQYANYPYTFGQGTKLEIK
inflammation in the mouse lung (BAL murine cytokines) [1]: neither KB243 or KB004 treatments in humanized NSG mice evoked inflammation
development of lung fibrosis (CCR10+ EphA3+ cells; prophylactic treatment over 35 days): completely prevented
CCR10+ CD45+ cells in lungs, KB004 versus KB243 (CCR10+ EphA3+ cells; [2]): significant reduction
CCR10+ Lin- cells in lungs, KB004 versus KB243 (CCR10+ EphA3+ cells; [2]): significant reduction
hydroxyproline in the lungs (CCR10+ EphA3+ cells; prophylactic, 5 mg/kg i.p. twice weekly days 0 to 35, day 35): significantly reduced
numbers of CD45+ and Lin- CCR10+ cells and pulmonary fibrosis (CCR10+ EphA3+ cells; therapeutic treatment from days 35 to 63): failed to reduce
histological appearance, KB243 versus KB004 (CCR10+ EphA3+ cells; therapeutic, days 35 to 63): no significant difference
lung hydroxyproline, KB243 versus KB004 (CCR10+ EphA3+ cells; therapeutic, days 35 to 63): no significant difference
CCR10+ cell numbers, KB243 versus KB004 (CCR10+ EphA3+ cells; therapeutic, days 35 to 63, flow cytometry): no significant difference
hydroxyproline in humanized NSG lungs relative to non-humanized mice (CCR10+ EphA3+ cells; therapeutic, starting at day 35, day 63): elevated
histological interstitial consolidation, KB004 compared to KB243 (CCR10+ EphA3+ cells; [3]): ameliorated
number of CD45+ CCR10+ cells, KB004 compared to KB243 (CCR10+ EphA3+ cells; [3]): significant reduction
lung hydroxyproline, KB004 compared to KB243 (CCR10+ EphA3+ cells; treatment beginning at day 7 after IPF cell injection, day 35): lower

Source: patent US11397178B2, “Method of predicting progression of idiopathic pulmonary fibrosis and monitoring of therapeutic efficacy” (Cedars-Sinai Medical Center, priority 2016, dated 2022)
